Measured values published in the nanobody polyreactivity screen of Harvey et al. (2022).

experiment: yeast display, Sf9 membrane polyspecificity reagent, FACS + sequencing; frameworks hold sequencing errors
Procedure, shortened: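 In a synthetic yeast display library (Saccharomyces cerevisiae BJ5465), nanobody expression was induced with galactose for 36–48 hours. FACS gates were set low and high (top ~1%) using anti-HA fluorescence for expression and streptavidin fluorescence for binding of the Sf9 membrane reagent. Each polyreactivity label is drawn from the gate of origin.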

Which “polyreactivity (PSR sort gate)” value does the source give for “QVQLVESGGGLVQAGGSLRLSCAASGSTFSKKAMGWYRQAPGKERELVAAITGRGGNTYYADSVKGRFTLSRDNAKNTVYLQMNSLKPEDTAVYYCAASWATYWFYRKAYNYWGQGTQVTVSS” here?
The value was “high polyreactivity”.

Which “polyreactivity (PSR sort gate)” value does the source give for “QVQLVESGGGLVQAGGSLRLSCAASGSTFSKNAMGWYRQAPGKERELVASISSSGGSTYYADSVKGRFTISRDNAKNTVYLQMNSLKPEDTAVYYCNRRWYARGEYWGQGTQVTVSS” here?
The value was “high polyreactivity”.

Which “polyreactivity (PSR sort gate)” value does the source give for “QVQLVESGGGLVQAGGSLRLSCAASGSTFSKNTMGWYRQAPGKERELVAAITGTGDSTYYADSVKGRFTISRDNAKYPVYLQMNSLKPEDTAVYYCAADAYSLCYESWGQGTKVTVSS” here?
The value was “low polyreactivity”.

With “QVQLVESGGGLVQAGGSLRLSCAASGSTFSKYAMGWYRQAPGKERELVAAITWRASTYYADSVKGRFTISRDNAKNTVYLQMNSLKPEDTAVYYCAVRQSQRGGTSSNTSNDYWGQGTQVTVSS” as the sequence, how does the “polyreactivity (PSR sort gate)” value read?
The value was “high polyreactivity”.

For “QVQLVESGGGLVQAGGSLRLSCAASGSTFSKYAMGWYRQAPGKERELVATISSTGSTNYADSVKGRFTISRDNAKNTVYLQMNSLKPEDTAVSYCNAGRRGRPYYKYYYWGQGTQVTVSS”, which “polyreactivity (PSR sort gate)” value is on record?
Its value is “high polyreactivity”.

For “QVQLVESGGGLVQAGGSLRLSCAASGSTFSLYAMGWSRQAPGKERELVAAISRSGGRTYYADSVKGRFTISRDNAKNTVYLQMNSLKPEDTAVYYCAADSTSGYYWGQGTQVTVSS”, which “polyreactivity (PSR sort gate)” value is on record?
Its value is “high polyreactivity”.

For “QVQLVESGGGLVQAGGSLRLSCAASGSTFSLYAMGWYRQAPGKERELVAAISQSGSRTYYADSVKGRFTISRDNAKNTVYLQMNSLKPEDTAVYYCAAYSPQTYLRWTYGYWGQGTQVTVSS”, which “polyreactivity (PSR sort gate)” value is on record?
The value was “high polyreactivity”.

Which “polyreactivity (PSR sort gate)” value does the source give for “QVQLVESGGGLVQAGGSLRLSCAASGSTFSLYAMGWYRQATGKERELVASIRGRGGSTNYADSVKGRFTISRDNAKNTVYLQMNSLKPEDTAVYYCAAAVGSVRYDYWGQGTQVTVSS” here?
The value was “high polyreactivity”.

Which “polyreactivity (PSR sort gate)” value does the source give for “QVQLVESGGGLVQAGGSLRLSCAASGSTFSLYDMGWYRQAPGKERELVAAISSSGGGTYYADSVKGRFTISRDNAKKTVYLQMNSLKPEDTAVYYCAARFYYYPTKYDSWGQGTQVTVSS” here?
The value was “high polyreactivity”.

Which “polyreactivity (PSR sort gate)” value does the source give for “QVQLVESGGGLVQAGGSLRLSCAASGSTFSLYTMGWYRQAPGKERELVAAITNGGSTKYADSVKGRFTISRDNAKNTVYLQMNSLKPEDTAVYYCAALYTHYYWIEYDYWGQGTQVTVSS” here?
The value was “low polyreactivity”.

For “QVQLVESGGGLVQAGGSLRLSCAASGSTFSNAMGWYREAPGKERELVAAITNRGGSTYYADSVKGRFTISRDNAKNTVYLQMNSLKPEDTAVYYCAAAGIPESWYQERDYWGQGTQVTVSS”, which “polyreactivity (PSR sort gate)” value is on record?
The value was “low polyreactivity”.

Which “polyreactivity (PSR sort gate)” value does the source give for “QVQLVESGGGLVQAGGSLRLSCAASGSTFSPYALGWYRQAPGKERELVAGITSSGGDTYYADSVKGRFTISRDNAKNTVYLQMNSLKPEDTAVYYCAADWWVLGQLWFDYWGQGTQVTVSS” here?
The value was “low polyreactivity”.

Which “polyreactivity (PSR sort gate)” value does the source give for “QVQLVESGGGLVQAGGSLRLSCAASGSTFSPYAMGWYIQAPGKERELVAAIRVRVGGNTYYADSVKGRFTISRDNAKNTVYLQMNSLKPEDTAVYYCAAYSRTLYPDRYYWGQGTQVTVSS” here?
Its value is “high polyreactivity”.

For “QVQLVESGGGLVQAGGSLRLSCAASGSTFSPYAMGWYRQAPGKDRELVAAISYDGASTYYADSVKGRFTISRDNAKNTVYLQMISLKPEDTAVYYCAADYFRSYEGTYWVVASYYYWGQGTQVTVSS”, which “polyreactivity (PSR sort gate)” value is on record?
The value was “low polyreactivity”.

Which “polyreactivity (PSR sort gate)” value does the source give for “QVQLVESGGGLVQAGGSLRLSCAASGSTFSQYAMGWYRPAPGKERELVAAINYIGGSTYYADSVKGRFTISRDNAKNTVYLQMNSLKPEDTAVYYCAVQRWKSSVSFGYWGQGTQVTVSS” here?
Its value is “low polyreactivity”.

With “QVQLVESGGGLVQAGGSLRLSCAASGSTFSQYAMGWYRQAPGKERELVAAITTSDGSTNYADSVKGRFTISRDNAKNTVYLQMNSLKPEDTAVYYCNTEYFYYSFGYWGQGTQVTVSS” as the sequence, how does the “polyreactivity (PSR sort gate)” value read?
Its value is “low polyreactivity”.

Which “polyreactivity (PSR sort gate)” value does the source give for “QVQLVESGGGLVQAGGSLRLSCAASGSTFSRNAMGWSRQAPGKERELVAAISYRGGSTYYADSVKGRFTISRDNAKNTVYLQMNSLKPEDTAVYYCNADVGWRAPDYGGYDYWGQGTQVTVSS” here?
Its value is “high polyreactivity”.

With “QVQLVESGGGLVQAGGSLRLSCAASGSTFSRNAMGWYRQAPGKERELVAAISWRGGRTYYADSVKGRFTISRDNAKNTVYLQMNRLKPEDTAVYYCAAEHKYRYDYWGQGTQVTVSS” as the sequence, how does the “polyreactivity (PSR sort gate)” value read?
The value was “low polyreactivity”.

Which “polyreactivity (PSR sort gate)” value does the source give for “QVQLVESGGGLVQAGGSLRLSCAASGSTFSRNTMGWYRQAPGKERELVAAITRSGDSTYYADSVKGRFTISRDNAKKTVYLQMNSLKPEDTAVYYCAARRAYLNYYYWGQGTQVTVSS” here?
The value was “high polyreactivity”.

For “QVQLVESGGGLVQAGGSLRLSCAASGSTFSRYAMGWYRPAPGKERELVAAITRSGGGTHYADSVKGRFTISRDNAKNTVYLQMNSLKPEETAVYYCAKRQSGYRYDYWGQGTEVTVSS”, which “polyreactivity (PSR sort gate)” value is on record?
Its value is “low polyreactivity”.

For “QVQLVESGGGLVQAGGSLRLSCAASGSTFSRYAMGWYRQAPGKERELVAAISRRAGSTYYADSVKGRFTISRDNAKNTVYLQMNSLKPEDTAVYYCAARTWTENRDGDYWGQGTQVTVSS”, which “polyreactivity (PSR sort gate)” value is on record?
Its value is “high polyreactivity”.
